One substance from EP4563528A1 can be followed below.

In assay [1] the target is human IgG (human). The assay can be described thus: depletion of IgG from 50 µL human serum with 1 mg nanoparticles, 60 min with stirring at room temperature.
The target of assay [2] is human IgG (human). In words: depletion of 10 mg/ml IgG solution, 1 mg particles per 50 µL, single half-hour incubation.

Turning to “protein G' (protein G devoid of the albumin recognition region), covalently bound to silica mesoporous nanoparticles (from UniProt P19909 314-497)”, the IgG elimination capacity with human IgG (human) [1] was > 90%. Also, the percent of IgG removed with human IgG (human) [2] was > 90%.
